Data from the domain aggregation screens of Martell et al. (2025).

Assay: soluble fraction after stress (log2 fold change); higher = more stays soluble; pooled small domains, quantitative proteomics
Details: stress: 75 degC
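Further: 20 min heating vs room temperature control held 20 min.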

Row | Sequence | soluble fraction (log2)
1 | HMVAISNTSGLAGVAYWIQSNIPKGIDIRKDNPGIVTIKNWIDEEYRKGRTTTISEEEMFKLVREYMPEL | -1.87
2 | HMVAMGQRVVPLTHLSIDDVRRLLESTYGKDSGIEVTKPGTAAKGVIVTAPRTELDGIVALVKQA | -0.113
3 | HMVAMYLRVGISNGRRYLSIVQGYRDQVTKKVRHNTVKSLGYLDDLEKHYPDPIAHFKAVVEEMNKKQALE | -2.04
4 | HMVANDQILNQYGISDREAEIIGLLIEGLSNQQIAKQLYISPNTVKTHIKNIYAKVGVNNRLQLFSLLK | -0.435
5 | HMVANLPFNYKVYAKKGKLYVVISYKDSNGKYKKKWIRTGLDEGTKKKEVNTVADQIAAEYYSSMRLE | -3.52
6 | HMVAQQINDFRSERDASTGTLKRPLFDTLRDVISSRAQAYVSATGKPVTVEDLDRIYQAVEAEAKQAL | 0.0174
7 | HMVDDELTARRRVNLRRIADELGGAAAVARKTQKSVQQISSMLNGTKSFGSKIARDIEPKLGLPLQSLDKE | 0.0147
8 | HMVDDRPVTGTTLIREWQGRAYEVIVQAGHFEFQGQRYQSLSAIAKVITGTVWNGWAFFGLR | -0.415
9 | HMVDDTGLPTVLISDGRLLERNLHRLHLDHTWLQRRLEENNIPSIQSLFLLTVDKQHQLYFLKK | -1.74
10 | HMVDGTPALTDLKKVSKPGRRHYTGSQEIPRVLNGLGISIVSTSKGIMTGAQARRQKVGGELLAFV | 0.0345
11 | HMVDIIMDLLEAVAQARPADAFIKSLHIQYQERGGLSKKQLQGLYGKAAKTAGIPPGKLATLEAIILKRP | -2.52
12 | HMVDITPDLIRTLLERFGEYGVTKEHIEARIQRHIESILPAQVVQLRKTYNSLKDGMSQPSDWFDI | -1.9
13 | HMVDLEINGRQTLQFVANKYGIPVEKLATDLNIPSDRFGEKLGRLRRQYAFTMNDVRKSILKNK | -0.588
14 | HMVDPELFIWVESSKEPVYHLAYKIELFVHSTDPQDDVPVHRWQVFVDAHNGNILDKFDEVR | -0.292
15 | HMVDPRWETPDENLAEQIKSVMPVMWVYDREAKSFVERPAIDFSFSIFERTTLYIYDKDGNEIGFAR | -0.0443
16 | HMVDQVDKDRFLEALTQLGGSAGNVRLRETLQWEEEVYVIIKDALVKSGTILTGRGRGGSVLLASA | -0.95
17 | HMVDSLTIGRRIRQLRTERGMTLEELAAAVGRAPSQLSMIENGRREPKLTLLQAIARALGSTLDALLE | -0.562
18 | HMVDVNLLKYYVMESGKSLTDVAAAIGVTPATLHRKMSGESDFYRKEMQDIASYLGLDRDTIDRIFF | -1.84
19 | HMVEDIVLTDAQIEFVKQQAKNGLSAFQISEMIWPEMSVKRFSKQHVAVLDFLREYEPAYVHDSE | 0.156

Row | Sequence | soluble fraction (log2)
20 | HMVEELDVQFIKLTVQGDHPWKNKKIRELSIPWDLLFVLIIRGDKSIIPNGKTTIKDGDIVVVSAPEYRG | -1.12
21 | HMVEFLMESTNGMYGIVKEGSSYYVQKGINESSLDYIGGMFMKDKNRFSSYSTALKRLELISGQET | -0.419
22 | HMVEGMQFDRGYQSPYFVTNAEKMVAELDNPYILLVEKKISSMKELLPVLEPVAQQGKSLLIISEEVEG | 0.0546
23 | HMVEGTVKWFNDEKGFGFIEQEGGKDVFVHFSAINGSGRRTLHEGQRVTMEVTQGQKGPQAENVNP | 0.147
24 | HMVEIPEFKITTFVNTDNEQIAEFENGFTDKKAEITFNNTKYVFKEKLPDQDGIRTYVYEELHE | 0.141
25 | HMVELGMSQNEFIQKFGKPFNKEMAYTYDKHKRETLFYKEDLYRGSWFIVTTAFTFVDSKLVSQEIVREER | -3.36
26 | HMVENMDEFIGRVRRLVSDRLDLLKEASDDEIRETISQVVLELSREQFLTLNEKKTVLEGVFNSMR | -0.944
27 | HMVERLVVSPGAGVFAPNKAIANGTRISVGDVLGMVGEQEVRSLFDGVLQSFISVDGERLTAHQPVAWLRT | -0.587
28 | HMVEVPKVAGMSTAQGVSELEQKGFVVNRTESYDDTVPKGNIISQTPEGGTKVPSGSAVTIKISQGAE | -0.159
29 | HMVEVPNVIGMTKPELTQQFVNLKLDGSGEGDVVVQQSPSEGSKVKEGSTVRVYFG | 0.128
30 | HMVEVPNVSNLTLEQAENKLIQQGLQVKLEGQGEKVVAQIPQPGAVVNKKSTVILF | 0.258
31 | HMVFLPDEIFRLKVIKAGEGPEQGVGYLDDGTMVVIEGARDRIGDELEVRVTSTLQTNAGKMIFTKFE | -0.548
32 | HMVGEPEPIRYSRFLDEMKSGKLDSVVIQGDTILGVRKDKSQFKTVNPETDYSALIGALDKAGVGIEGRA | 0.132
33 | HMVGEYTVKKGDTLWKIAGQTLGSPLRYAEIYELNKDVIEEAALGRGKKNSSNGHWIFQGTVLKIPA | -0.188
34 | HMVGIAEAMKHIADEDYGDLSAIFKQIFSDTDGGRNFSDAIRTQMRSTDSSGLRKVLSTLIMSIEE | -0.651
35 | HMVGNEEALRAIVESIIAQNTTEVASFREGKEGLIGWFLGQVMRQTGGKADPKLARQILLELLKQ | -0.449
36 | HMVGNYYDILGVPETATQDAIKKAFRSLAQQHHPDKNPDDPGAEAMFKKVSEAYQVLSDPDKRQTYDASL | -0.00926
37 | HMVIDFYDPQTKVIHEIKKSSAKEEAHVWQVKYYIYLFEKEEIMGVKGVLEYPLLREIVSVNF | 0.19
38 | HMVINQRKLNLLSIYSSGSEKRAIILFPTGQTKFVKVGDTLDGGRVAAIGTSEIRYLKGGNNLVLRIPG | -2.64
